From patent publication US6528275B1, “Substrates and inhibitors of proteolytic enzymes” (Peptide Therapeutics Limited, priority 1996, dated 2003) come the findings set out here.

Assay in all cases: Der pI substrate assay with FRET peptides (fluorescence, Km, kcat/Km)
Common to all, as to format: biochemical, house dust mite
Conditions in all cases: other: purified Der pI; peptides SEQ ID Nos. 1-76; pH 8.25

Substrate in data set [1]: CC(C)CC[C@H](NC(=O)[C@H](C)NC(=O)[C@@H](NC(=O)c1ccccc1N)C(C)C)C(=O)N[C@@H](CO)C(=O)N[C@@H](Cc1ccc(O)c([N+](=O)[O-])c1)C(=O)N[C@@H](CC(=O)O)C(N)=O
The method, then:
(§1) Using the general techniques described above, the following compounds were prepared and assayed as potential substrates against Der pI purified as described above.
(§2) Each mixture of 20 compounds in the libraries of the apparatus described herein was screened at a concentration of 1.0 μM per compound in an assay against the cysteinyl protease Der pI.
(§3) Plate assays were carried out in 96 well plate format, using 0.1 ug of Der pI per 100 μL assay volume in each well and using 20 μM of the substrate. All assays were performed in Assay Buffer (AB; 50 mM potassium phosphate, pH 8.25 containing 1 mM ethylenediaminetetraacetic acid (EDTA) and 1 mM dithiothreitol (DTT). The Der pI enzyme is pre-activated by addition of DTT and this in incubated at room temperature for 5 min. prior to initiation of the assay. As an example for the screening methodology, each well contains a 5 μL of a 20 μM solution of the test compound in DMSO, 10 μL of a 200 μM aqueous solution of the substrate, 2, and 85 μL of Der pI in AB is added to initiate the reaction. Enzyme activity is monitored by fluorescence using 320 nm for excitation and 420 nm for the emission wavelengths using a Labsystems Fluroskan Ascent machine. Kinetic measurements were carried out using a Hitachi F-4500 Fluorescence Spectrophotometer.

Substrate in data set [2]: CC(C)CC[C@H](NC(=O)[C@H](C)NC(=O)[C@H](CC1CCCCC1)NC(=O)c1ccccc1N)C(=O)N[C@@H](CO)C(=O)N[C@@H](Cc1ccc(O)c([N+](=O)[O-])c1)C(=O)N[C@@H](CC(=O)O)C(N)=O
The method, then: as §1, §2, §3

Substrate in data set [3]: CC(C)CC[C@H](NC(=O)[C@H](C)NC(=O)[C@H](CCC(N)=O)NC(=O)c1ccccc1N)C(=O)N[C@@H](CO)C(=O)N[C@@H](Cc1ccc(O)c([N+](=O)[O-])c1)C(=O)N[C@@H](CC(=O)O)C(N)=O
The method, then: as §1, §2, §3

Substrate in data set [4]: CC(C)CC[C@H](NC(=O)[C@H](C)NC(=O)[C@H](Cc1ccc(-c2ccccc2)cc1)NC(=O)c1ccccc1N)C(=O)N[C@@H](CC(=O)O)C(=O)N[C@@H](Cc1ccc(O)c([N+](=O)[O-])c1)C(=O)N[C@@H](CC(=O)O)C(N)=O
Here is the method:
as §1, §2, §3

Substrate in data set [5]: CC(C)CC[C@H](NC(=O)[C@H](C)NC(=O)[C@H](Cc1ccc(-c2ccccc2)cc1)NC(=O)c1ccccc1N)C(=O)N[C@@H](CC(C)C)C(=O)N[C@@H](Cc1ccc(O)c([N+](=O)[O-])c1)C(=O)N[C@@H](CC(=O)O)C(N)=O
Here is the method: as §1, §2, §3

Substrate in data set [6]: CC(C)CC[C@H](NC(=O)[C@H](C)NC(=O)[C@H](Cc1ccc(-c2ccccc2)cc1)NC(=O)c1ccccc1N)C(=O)N[C@@H](CO)C(=O)N[C@@H](Cc1ccc(O)c([N+](=O)[O-])c1)C(=O)N[C@@H](CC(=O)O)C(N)=O
Here is the method:
as §1, §2, §3

Substrate in data set [7]: CC(C)CC[C@H](NC(=O)[C@H](C)NC(=O)[C@H](Cc1ccc(-c2ccccc2)cc1)NC(=O)c1ccccc1N)C(=O)N[C@@H](Cc1ccc(O)cc1)C(=O)N[C@@H](Cc1ccc(O)c([N+](=O)[O-])c1)C(=O)N[C@@H](CC(=O)O)C(N)=O
Here is the method:
as §1, §2, §3

Substrate in data set [8]: CC(C)CC[C@H](NC(=O)[C@H](C)NC(=O)[C@H](Cc1ccc(-c2ccccc2)cc1)NC(=O)c1ccccc1N)C(=O)N[C@@H](Cc1cccnc1)C(=O)N[C@@H](Cc1ccc(O)c([N+](=O)[O-])c1)C(=O)N[C@@H](CC(=O)O)C(N)=O
Here is the method: as §1, §2, §3

Substrate in data set [9]: CC(C)[C@H](NC(=O)c1ccccc1N)C(=O)N[C@@H](C)C(=O)N[C@@H](CCCCN)C(=O)N[C@@H](CO)C(=O)N[C@@H](Cc1ccc(O)c([N+](=O)[O-])c1)C(=O)N[C@@H](CC(=O)O)C(N)=O
The method, then: as §1, §2, §3

Substrate in data set [10]: CCCC[C@H](NC(=O)[C@H](C)NC(=O)[C@@H](NC(=O)[C@H](CCC(=O)O)NC(=O)c1ccccc1N)C(C)C)C(=O)N[C@@H](CO)C(=O)N[C@@H](Cc1ccc(O)c([N+](=O)[O-])c1)C(=O)N[C@@H](CC(=O)O)C(N)=O
Here is the method:
as §1, §2, §3

Substrate in data set [11]: CCCC[C@H](NC(=O)[C@H](C)NC(=O)[C@@H](NC(=O)[C@H](Cc1ccc(-c2ccccc2)cc1)NC(=O)c1ccccc1N)C(C)C)C(=O)N[C@@H](CO)C(=O)N[C@@H](Cc1ccc(O)c([N+](=O)[O-])c1)C(=O)N[C@@H](CC(=O)O)C(N)=O
The method, then:
as §1, §2, §3

Substrate in data set [12]: CCCC[C@H](NC(=O)[C@H](C)NC(=O)[C@@H](NC(=O)[C@H](Cc1cccc2ccccc12)NC(=O)c1ccccc1N)C(C)C)C(=O)N[C@@H](CO)C(=O)N[C@@H](Cc1ccc(O)c([N+](=O)[O-])c1)C(=O)N[C@@H](CC(=O)O)C(N)=O
Here is the method:
as §1, §2, §3

B1: Der pI (Dermatophagoides pteronyssinus) (protein)
chain: TNACSINGNAPAEIDLRQMRTVTPIRMQGGCGSCWAFSGVAATESAYLAYRNQSLDLAEQELVDCASQHGCHGDTIPRGIEYIQHNGVVQESYYRYVAREQSCRRPNAQRFGISNYCQIYPPNVNKIREALAQTHSAIAVIIGIKDLDAFRHYDGRTIIQRDNGYQPNYHAVNIVGYSNAQGVDYWIVRNSWDTNWGDNGYGYFAANIDLMMIEEYPYVVIL
notes: tissue SmithKline-Beecham, U.K (crude mite extract); host or cells: crude house dust mite extract
Usually Km stands for the substrate concentration at which the rate is half of its maximum. As for B1, the Km in data set [1] turned out to be 4 µM; in [2], 9 µM; in [3] it was 12 µM; in data set [4], 5.0 µM; in data set [5], 3.7 µM; in data set [6], 2.5 µM. Also, the Km stood at 3 µM in data set [7]; 4 µM in data set [8]; 14 µM in [9]; 20 µM in [10]; 10 µM in [11]; 17 µM in data set [12].
